Tests used:
[1] = system: surface proteins of Aggregatibacter actinomycetemcomitans (whole cells) (Aggregatibacter actinomycetemcomitans); settings: whole-cell binding, real-time PCR of eluted aptamer, SELEX buffer, room temperature
[2] = system: surface proteins of Porphyromonas gingivalis (whole cells) (Porphyromonas gingivalis); settings: whole-cell binding, real-time PCR of eluted aptamer, SELEX buffer, room temperature

TCCCTACGGCGCTAACCGTATGTGTACCCGGTGGGGCGCGATTGACGCCACCGTGCTACAAC [A. actinomycetemcomitans aptamer]
Kd [1]: 3.5 nM

TCCCTACGGCGCTAACTGTAACTGGGAGCGGACCTAGGTTACATGAGCCACCGTGCTACAAC [P. gingivalis aptamer]
Kd [2]: 4.59 nM
